What was measured:
[1] = target: hsSUMO2-MBP fusion protein
[2] = target: bdSUMO-MBP fusion protein
[3] = target: scSUMO-MBP fusion protein with the bdSUMO^Mut1 exchanges
[4] = target: bdSUMO Mut11-MBP fusion protein
[5] = target: hsSUMO2-MBP fusion protein with the bdSUMO^Mut11 exchanges
[6] = target: bdSUMO Mut15-MBP fusion protein
[7] = target: bdSUMO Mut8-MBP fusion protein
[8] = target: bdSUMO Mut14-MBP fusion protein
[9] = target: scSUMO-MBP fusion protein with the bdSUMO^Mut11 exchanges
[10] = target: bdSUMO Mut13-MBP fusion protein
[11] = target: bdSUMO Mut10-MBP fusion protein
[12] = target: scSUMO-MBP fusion protein
[13] = target: bdSUMO Mut12-MBP fusion protein
[14] = target: bdSUMO^Mut1-MBP fusion protein
[15] = target: hsSUMO2-MBP fusion protein with the bdSUMO^Mut1 exchanges
[16] = target: bdSUMO D67K-MBP fusion protein

B1: hsSENP2 (protein)
chain: EFPEITEEMEKEIKNVFRNGNQDEVLSEAFRLTITRKDIQTLNHLNWLNDEIINFYMNMLMERSKEKGLPSVHAFNTFFFTKLKTAGYQAVKRWTKKVDVFSVDILLVPIHLGVHWCLAVVDFRKKNITYYDSMGGINNEACRILLQYLKQESIDKKRKEFDTNGWQLFSKKSQEIPQQMNGSDCGMFACKYADCITKDRPINFTQQHMPYFRKRMVWEILHRKLL
With B1 the cleavage of the SUMO fusion protein [1] was 100 % cleavage, the cleavage of the SUMO fusion protein [2] was < 50 % cleavage and the “cleavage of SUMO-MBP fusion, 1 h at 25 °C (FIG. 14)” value (“cleavage of SUMO-MBP fusion, 1 h” below) [3] was “allowed cleavage resistance against Ulp1, SUMOstar protease, hsSENP2 and bdSENP1”. For the same protein, the “cleavage of the SUMO fusion protein” value [4] was “resistant”, the “cleavage of SUMO-MBP fusion, 1 h” value [5] was “allowed cleavage resistance against Ulp1, SUMOstar protease, hsSENP2 and bdSENP1” and the “cleavage of the SUMO fusion protein” value [6] was “resistant”. For the same protein, the “cleavage of the SUMO fusion protein” value [7] was “resistant”, the “cleavage of the SUMO fusion protein” value [8] was “resistant” and the “cleavage of SUMO-MBP fusion, 1 h” value [9] was “allowed cleavage resistance against Ulp1, SUMOstar protease, hsSENP2 and bdSENP1”. For the same protein, the “cleavage of the SUMO fusion protein” value [10] was “resistant”, the “cleavage of the SUMO fusion protein” value [11] was “resistant” and the cleavage of the SUMO fusion protein [12] was 100 % cleavage. For the same protein, the “cleavage of the SUMO fusion protein” value [13] was “resistant”, the “cleavage of the SUMO fusion protein” value [14] was “resistant” and the “cleavage of SUMO-MBP fusion, 1 h” value [15] was “allowed cleavage resistance against Ulp1, SUMOstar protease, hsSENP2 and bdSENP1”. The “cleavage of the SUMO fusion protein” value [16] was “resistant”.

B2: bdSENP1^MutJ (protein)
chain: PFVPLTDEDEDNVRHALGGRKESETLSVHEASSIVITREILQCLNDKEWLNDEVINLYLELLKERELREPNKFLKCHFFNTFFYKKLINGGYDYKSVRSWTTTRKLGYNLIDCDKIFVPIHKDVHWCLAVINIKEKKFQYLDSLGYMDMKALRILAKYLVDEVKDKSGKQIDVHAWKQEGVQNLPLQENGWDCGMFMLKYIDFYSRDMELVFGQKHMSYFRRRTAKEILDLKAG
For B2, the cleavage of the SUMO fusion protein [1] was < 50 % cleavage, the cleavage of the SUMO fusion protein [2] was < 50 % cleavage and the cleavage of the SUMO fusion protein [4] was 100 % cleavage. For the same protein, the cleavage of the SUMO fusion protein [6] was 100 % cleavage, the cleavage of the SUMO fusion protein [7] was < 50 % cleavage and the cleavage of the SUMO fusion protein [8] was < 50 % cleavage. The cleavage of the SUMO fusion protein [10] was 100 % cleavage, the cleavage of the SUMO fusion protein [11] was 100 % cleavage and the cleavage of the SUMO fusion protein [12] was < 25 % cleavage. The cleavage of the SUMO fusion protein [13] was < 50 % cleavage, the cleavage of the SUMO fusion protein [14] was 100 % cleavage and the cleavage of the SUMO fusion protein [16] was 100 % cleavage.

B3: bdSENP1^Muti (protein)
chain: PFVPLTDEDEDNVRHALGGRKKSETLSVHEASHIVITREILQCLNDKEWLNDEVINLYLELLKERELREPNKFLKCHFFNTFFYKKLINGGYDYKSVREWTTRRKLGYNLIDCDKIFVPIHKDVHWCLAVINIKEKKFQYLDSLGYMDMKALRILAKYLVDEVKDKSGKQIDVHAWKQEGVQNLPLQENGWDCGMFMLKYIDFYSRDMELVFGQKHMSYFRRRTAKEILDLKAG
In the case of B3, the “cleavage of the SUMO fusion protein” value [1] is reported as “resistant”, the cleavage of the SUMO fusion protein [2] is reported as < 25 % cleavage and the cleavage of the SUMO fusion protein [4] is reported as < 50 % cleavage. For the same protein, the cleavage of the SUMO fusion protein [6] was < 50 % cleavage, the cleavage of the SUMO fusion protein [7] was < 25 % cleavage and the cleavage of the SUMO fusion protein [8] was < 50 % cleavage. The cleavage of the SUMO fusion protein [10] was < 75 % cleavage, the cleavage of the SUMO fusion protein [11] was < 50 % cleavage and the “cleavage of the SUMO fusion protein” value [12] was “resistant”. For the same protein, the cleavage of the SUMO fusion protein [13] was < 50 % cleavage, the cleavage of the SUMO fusion protein [14] was 100 % cleavage and the cleavage of the SUMO fusion protein [16] was < 25 % cleavage.

B4: bdSENP1 from B. distachyon (protein)
chain: PFVPLTDEDEDNVRHALGGRKRSETLSVHEASNIVITREILQCLNDKEWLNDEVINLYLELLKERELREPNKFLKCHFFNTFFYKKLINGGYDYKSVRRWTTKRKLGYNLIDCDKIFVPIHKDVHWCLAVINIKEKKFQYLDSLGYMDMKALRILAKYLVDEVKDKSGKQIDVHAWKQEGVQNLPLQENGWDCGMFMLKYIDFYSRDMELVFGQKHMSYFRRRTAKEILDLKAG
With B4 the cleavage of the SUMO fusion protein [1] was < 50 % cleavage, the cleavage of the SUMO fusion protein [2] was 100 % cleavage and the “protease concentration required to efficiently cleave 100 µM cognate substrate, 1 h at 0 °C” value [2] was “Around 15-50 nM of these two proteases were required to efficiently cleave the cognate substrate”. For the same protein, the “cleavage of SUMO-MBP fusion, 1 h” value [3] was “allowed cleavage resistance against Ulp1, SUMOstar protease, hsSENP2 and bdSENP1”, the cleavage of the SUMO fusion protein [4] was < 25 % cleavage and the “cleavage of SUMO-MBP fusion, 1 h” value [5] was “allowed cleavage resistance against Ulp1, SUMOstar protease, hsSENP2 and bdSENP1”. The cleavage of the SUMO fusion protein [6] was < 25 % cleavage, the cleavage of the SUMO fusion protein [7] was < 25 % cleavage and the cleavage of the SUMO fusion protein [8] was < 25 % cleavage. The “cleavage of SUMO-MBP fusion, 1 h” value [9] was “allowed cleavage resistance against Ulp1, SUMOstar protease, hsSENP2 and bdSENP1”, the cleavage of the SUMO fusion protein [10] was < 50 % cleavage and the cleavage of the SUMO fusion protein [11] was < 25 % cleavage. The cleavage of the SUMO fusion protein [12] was < 50 % cleavage, the cleavage of the SUMO fusion protein [13] was < 25 % cleavage and the cleavage of the SUMO fusion protein [14] was < 25 % cleavage. The “cleavage of SUMO-MBP fusion, 1 h” value [15] was “allowed cleavage resistance against Ulp1, SUMOstar protease, hsSENP2 and bdSENP1” and the cleavage of the SUMO fusion protein [16] was < 25 % cleavage.

B5: bdSENP1^MutK (protein)
chain: PFVPLTDEDEDNVRHALGGRKVSETLSVHEASQIVITREILQCLNDKEWLNDEVINLYLELLKERELREPNKFLKCHFFNTFFYKKLINGGYDYKSVRVWTTGRKLGYNLIDCDKIFVPIHKDVHWCLAVINIKEKKFQYLDSLGYMDMKALRILAKYLVDEVKDKSGKQIDVHAWKQEGVQNLPLQENGWDCGMFMLKYIDFYSRDMELVFGQKHMSYFRRRTAKEILDLKAG
B5 was tested, and the “cleavage of the SUMO fusion protein” value [1] was “resistant”, the cleavage of the SUMO fusion protein [2] was < 50 % cleavage and the cleavage of the SUMO fusion protein [4] was 100 % cleavage. The cleavage of the SUMO fusion protein [6] was 100 % cleavage, the cleavage of the SUMO fusion protein [7] was < 75 % cleavage and the cleavage of the SUMO fusion protein [8] was 100 % cleavage. The cleavage of the SUMO fusion protein [10] was 100 % cleavage, the cleavage of the SUMO fusion protein [11] was 100 % cleavage and the “cleavage of the SUMO fusion protein” value [12] was “resistant”. The cleavage of the SUMO fusion protein [13] was 100 % cleavage, the cleavage of the SUMO fusion protein [14] was 100 % cleavage and the cleavage of the SUMO fusion protein [16] was 100 % cleavage.

B6: bdSENP1^MutH (protein)
chain: PFVPLTDEDEDNVRHALGGRKPSETLSVHEASAIVITREILQCLNDKEWLNDEVINLYLELLKERELREPNKFLKCHFFNTFFYKKLINGYDYKSVREWTTMRKLGYNLIDCDKIFVPIHKDVHWCLAVINIKEKKFQYLDSLGYMDMKALRILAKYLVDEVKDKSGKQIDVHAWKQEGVQNLPLQENGWDCGMFMLKYIDFYSRDMELVFGQKHMSYFRRRTAKEILDLKAG
In the case of B6, the “cleavage of the SUMO fusion protein” value [1] is reported as “resistant”, the cleavage of the SUMO fusion protein [2] is reported as < 25 % cleavage and the cleavage of the SUMO fusion protein [4] is reported as 100 % cleavage. The cleavage of the SUMO fusion protein [6] was 100 % cleavage, the cleavage of the SUMO fusion protein [7] was < 75 % cleavage and the cleavage of the SUMO fusion protein [8] was 100 % cleavage. For the same protein, the cleavage of the SUMO fusion protein [10] was 100 % cleavage, the cleavage of the SUMO fusion protein [11] was 100 % cleavage and the “cleavage of the SUMO fusion protein” value [12] was “resistant”. The cleavage of the SUMO fusion protein [13] was 100 % cleavage, the cleavage of the SUMO fusion protein [14] was 100 % cleavage and the cleavage of the SUMO fusion protein [16] was < 75 % cleavage.

B7: Ulp1 from S. cerevisiae (protein)
chain: LVPELNEKDDDQVQKALASRENTQLMNRDNIEITVRDFKTLAPRRWLNDTIIEFFMKYIEKSTPNTVAFNSFFYTNLSERGYQGVRRWMKRKKTQIDKLDKIFTPINLNQSHWALGIIDLKKKTIGYVDSLSNGPNAMSFAILTDLQKYVMEESKHTIGEDFDLIHLDCPQQPNGYDCGIYVCMNTLYGSADAPLDFDYKDAIRMRRFIAHLILTDALK
For B7, the cleavage of the SUMO fusion protein [1] was < 25 % cleavage, the cleavage of the SUMO fusion protein [2] was 100 % cleavage and the “cleavage of SUMO-MBP fusion, 1 h” value [3] was “allowed cleavage resistance against Ulp1, SUMOstar protease, hsSENP2 and bdSENP1”. For the same protein, the “cleavage of the SUMO fusion protein” value [4] was “resistant”, the “cleavage of SUMO-MBP fusion, 1 h” value [5] was “allowed cleavage resistance against Ulp1, SUMOstar protease, hsSENP2 and bdSENP1” and the “cleavage of the SUMO fusion protein” value [6] was “resistant”. The “cleavage of the SUMO fusion protein” value [7] was “resistant”, the “cleavage of the SUMO fusion protein” value [8] was “resistant” and the “cleavage of SUMO-MBP fusion, 1 h” value [9] was “allowed cleavage resistance against Ulp1, SUMOstar protease, hsSENP2 and bdSENP1”. For the same protein, the “cleavage of the SUMO fusion protein” value [10] was “resistant”, the “cleavage of the SUMO fusion protein” value [11] was “resistant” and the cleavage of the SUMO fusion protein [12] was 100 % cleavage. For the same protein, the “protease concentration required to efficiently cleave 100 µM cognate substrate, 1 h at 0 °C” value [12] was “Around 15-50 nM of these two proteases were required to efficiently cleave the cognate substrate”, the “cleavage of the SUMO fusion protein” value [13] was “resistant” and the “cleavage of the SUMO fusion protein” value [14] was “resistant”. For the same protein, the “cleavage of SUMO-MBP fusion, 1 h” value [15] was “allowed cleavage resistance against Ulp1, SUMOstar protease, hsSENP2 and bdSENP1” and the “cleavage of the SUMO fusion protein” value [16] was “resistant”.

B8: bdSENP1^MutG (protein)
chain: PFVPLTDEDEDNVRHALGGRKSSETLSVHEASHIVITREILQCLNDKEWLNDEVINLYLELLKERELREPNKFLKCHFFNTFFYKKLINGGYDYKSVRRWTTVKLGYNLIDCDKIFVPIHKDVHWCLAVINIKEKKFQYLDSLGYMDMKALRILAKYLVDEVKDKSGKQIDVHAWKQEGVQNLPLQENGWDCGMFMLKYIDFYSRDMELVFGQKHMSYFRRRTAKEILDLKAG
For B8, the cleavage of the SUMO fusion protein [1] was 100 % cleavage, the cleavage of the SUMO fusion protein [2] was < 50 % cleavage and the cleavage of the SUMO fusion protein [4] was < 75 % cleavage. The cleavage of the SUMO fusion protein [6] was < 75 % cleavage, the cleavage of the SUMO fusion protein [7] was < 25 % cleavage and the cleavage of the SUMO fusion protein [8] was < 50 % cleavage. The cleavage of the SUMO fusion protein [10] was < 75 % cleavage, the cleavage of the SUMO fusion protein [11] was 100 % cleavage and the cleavage of the SUMO fusion protein [12] was < 25 % cleavage. The cleavage of the SUMO fusion protein [13] was < 50 % cleavage, the cleavage of the SUMO fusion protein [14] was 100 % cleavage and the cleavage of the SUMO fusion protein [16] was < 75 % cleavage.

Source: US20210261937
